Experimental findings from article PMC10709394, “Structural basis for nucleosome binding and catalysis by the yeast Rpd3S/HDAC holoenzyme” (Cell Research, 2023) are described below.

B2: Rpd3 (enzyme, yeast, UniProt P32561 1-433, looked up)
chain: MVYEATPFDPITVKPSDKRRVAYFYDADVGNYAYGAGHPMKPHRIRMAHSLIMNYGLYKKMEIYRAKPATKQEMCQFHTDEYIDFLSRVTPDNLEMFKRESVKFNVGDDCPVFDGLYEYCSISGGGSMEGAARLNRGKCDVAVNYAGGLHHAKKSEASGFCYLNDIVLGIIELLRYHPRVLYIDIDVHHGDGVEEAFYTTDRVMTCSFHKYGEFFPGTGELRDIGVGAGKNYAVNVPLRDGIDDATYRSVFEPVIKKIMEWYQPSAVVLQCGGDSLSGDRLGCFNLSMEGHANCVNYVKSFGIPMMVVGGGGYTMRNVARTWCFETGLLNNVVLDKDLPYNEYYEYYGPDYKLSVRPSNMFNVNTPEYLDKVMTNIFANLENTKYAPSVQLNHTPRDAEDLGDVEEDSAEAKDTKGGSQYARDLHVEHDNEFY
notes: Rpd3, yeast class I histone deacetylase, endogenous catalytic subunit of Rpd3S; Subunit of the endogenous holoenzyme; also called Rpd3/HDAC
B3: Rco1 (natural protein, yeast, UniProt Q04779 1-684, looked up)
chain: MDTSKKDTTRSPSHSNSSSPSSSSLSSSSSKEKKRPKRLSSQNVNYDLKRRKIITSEGIERSFKNEHSNLAVEDNIPEEEPKELLEKDSKGNIIKLNEPSTISEDSKVSVTGLPLNKGPSEKIKRESLWNYRKNLGGQSNNSEMTLVPSKRFTQVPKNFQDLNRNDLKTFLTENMTEESNIRSTIGWNGDIINRTRDREPESDRDNKKLSNIRTKIILSTNATYDSKSKLFGQNSIKSTSNASEKIFRDKNNSTIDFENEDFCSACNQSGSFLCCDTCPKSFHFLCLDPPIDPNNLPKGDWHCNECKFKIFINNSMATLKKIESNFIKQNNNVKIFAKLLFNIDSHNPKQFQLPNYIKETFPAVKTGSRGQYSDENDKIPLTDRQLFNTSYGQSITKLDSYNPDTHIDSNSGKFLICYKCNQTRLGSWSHPENSRLIMTCDYCQTPWHLDCVPRASFKNLGSKWKCPLHSPTKVYKKIHHCQEDNSVNYKVWKKQRLINKKNQLYYEPLQKIGYQNNGNIQIIPTTSHTDYDFNQDFKITQIDENSIKYDFFDKIYKSKMVQKRKLFQFQESLIDKLVSNGSQNGNSEDNMVKDIASLIYFQVSNNDKSSNNKSASKSNNLRKLWDLKELTNVVVPNELDSIQFNDFSSDEIKHLLYLKKIIESKPKEELLKFLNIENPENQSE
notes: Two copies stand in the holoenzyme; also called Rco1 I; Rco1 II

What all share (experiment): cryo-EM structure; endogenous Rpd3S incubated with an excess of H3Kc36me3 mononucleosome (70-bp DNA link at one end), fractionated by gel filtration, concentrated, no cross-linking; 3.7 Å
The target in series [1] is B2. Particulars: both partners purified.
Series [2] addresses T1, Sin3 (yeast, UniProt P22579 1-1536).
T1 construct: Sin3, yeast, endogenous scaffold subunit of Rpd3S
Particulars: both partners purified.

Series [3] concerns the target B3. Particulars: both partners purified.
Series [4] concerns the molecule itself.

T1 sequence (P22579 whole entry): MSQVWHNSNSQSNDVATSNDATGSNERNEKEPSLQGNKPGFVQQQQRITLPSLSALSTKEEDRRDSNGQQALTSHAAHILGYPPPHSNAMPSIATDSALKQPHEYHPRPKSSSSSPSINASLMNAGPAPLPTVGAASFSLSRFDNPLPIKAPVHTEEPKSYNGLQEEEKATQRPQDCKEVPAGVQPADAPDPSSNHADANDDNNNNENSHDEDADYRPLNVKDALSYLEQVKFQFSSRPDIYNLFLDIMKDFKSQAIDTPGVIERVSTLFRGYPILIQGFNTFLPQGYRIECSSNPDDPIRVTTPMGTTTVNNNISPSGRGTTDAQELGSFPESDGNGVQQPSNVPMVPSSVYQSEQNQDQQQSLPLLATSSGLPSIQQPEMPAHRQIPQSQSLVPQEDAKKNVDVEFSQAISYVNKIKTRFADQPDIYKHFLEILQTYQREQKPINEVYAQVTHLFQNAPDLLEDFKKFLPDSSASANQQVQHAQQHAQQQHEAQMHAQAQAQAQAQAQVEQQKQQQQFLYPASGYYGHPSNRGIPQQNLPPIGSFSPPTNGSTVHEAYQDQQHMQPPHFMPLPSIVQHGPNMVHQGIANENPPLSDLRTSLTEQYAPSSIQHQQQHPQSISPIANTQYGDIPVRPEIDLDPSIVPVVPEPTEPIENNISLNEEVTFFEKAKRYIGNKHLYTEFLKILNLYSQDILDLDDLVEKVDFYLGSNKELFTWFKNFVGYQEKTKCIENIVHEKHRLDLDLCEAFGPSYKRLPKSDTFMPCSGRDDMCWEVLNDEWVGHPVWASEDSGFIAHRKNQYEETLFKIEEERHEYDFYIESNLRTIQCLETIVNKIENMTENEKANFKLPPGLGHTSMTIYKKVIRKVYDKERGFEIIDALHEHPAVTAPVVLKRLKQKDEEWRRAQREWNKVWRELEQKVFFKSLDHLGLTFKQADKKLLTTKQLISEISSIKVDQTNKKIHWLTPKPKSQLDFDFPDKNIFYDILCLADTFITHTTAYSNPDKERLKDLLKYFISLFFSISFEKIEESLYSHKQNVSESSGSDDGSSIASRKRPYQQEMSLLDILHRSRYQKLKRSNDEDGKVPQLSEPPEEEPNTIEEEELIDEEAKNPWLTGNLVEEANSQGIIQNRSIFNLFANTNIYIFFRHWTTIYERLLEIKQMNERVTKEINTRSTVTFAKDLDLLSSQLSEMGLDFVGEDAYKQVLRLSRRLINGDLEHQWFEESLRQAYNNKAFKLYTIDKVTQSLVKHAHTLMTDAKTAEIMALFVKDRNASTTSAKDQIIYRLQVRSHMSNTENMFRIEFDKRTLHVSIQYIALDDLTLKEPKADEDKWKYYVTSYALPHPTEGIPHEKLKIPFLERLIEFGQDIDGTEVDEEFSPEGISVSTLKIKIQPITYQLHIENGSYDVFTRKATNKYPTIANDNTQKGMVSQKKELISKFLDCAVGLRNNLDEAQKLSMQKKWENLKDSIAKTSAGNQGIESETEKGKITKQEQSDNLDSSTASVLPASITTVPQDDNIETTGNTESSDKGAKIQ

B1: Eaf3 (natural protein, yeast, UniProt Q12432 1-401, looked up)
chain: MVDLEQEFALGGRCLAFHGPLMYEAKILKIWDPSSKMYTSIPNDKPGGSSQATKEIKPQKLGEDESIPEEIINGKCFFIHYQGWKSSWDEWVGYDRIRAYNEENIAMKKRLANEAKEAKKSLLEQQKKKKLSTSLGGPSNGGKRKGDSRSNASISKSTSQSFLTSSVSGRKSGRSSANSLHPGSSLRSSSDQNGNDDRRRSSSLSPNMLHHIAGYPTPKISLQIPIKLKSVLVDDWEYVTKDKKICRLPADVTVEMVLNKYEHEVSQELESPGSQSQLSEYCAGLKLYFDKCLGNMLLYRLERLQYDELLKKSSKDQKPLVPIRIYGAIHLLRLISVLPELISSTTMDLQSCQLLIKQTEDFLVWLLMHVDEYFNDKDPNRSDDALYVNTSSQYEGVALGM
notes: Two copies stand in the holoenzyme; also called Eaf3 I; Eaf3 II
As to B1, the binding result in series [1], in series [2] and in series [3] was “binds” each time.

For B2, the binding result in series [2] and in series [3] was “binds” in each case.

For the molecule B3, in series [2], the binding result is listed as “binds”. The “stoichiometry N” value in series [4] stood at 2.
